The test addresses tubulins (tubulin dimers; paclitaxel-stabilized microtubules). The experiment in a line: co-sedimentation; different concentrations of the protein added to paclitaxel-stabilized microtubules (prepolymerized from 8 uM tubulins in Fig 5A, 5 uM in S7 Fig) in PEMT buffer (1 mM MgCl2, 1 mM EGTA, 100 mM PIPES, 20 uM taxol, pH 6.9); 25 C 30 min; 100,000g 30 min; SDS-PAGE, Coomassie.

tubulins (tubulin dimers; paclitaxel-stabilized microtubules), sequence (P02550 whole entry, chain 1 of 2): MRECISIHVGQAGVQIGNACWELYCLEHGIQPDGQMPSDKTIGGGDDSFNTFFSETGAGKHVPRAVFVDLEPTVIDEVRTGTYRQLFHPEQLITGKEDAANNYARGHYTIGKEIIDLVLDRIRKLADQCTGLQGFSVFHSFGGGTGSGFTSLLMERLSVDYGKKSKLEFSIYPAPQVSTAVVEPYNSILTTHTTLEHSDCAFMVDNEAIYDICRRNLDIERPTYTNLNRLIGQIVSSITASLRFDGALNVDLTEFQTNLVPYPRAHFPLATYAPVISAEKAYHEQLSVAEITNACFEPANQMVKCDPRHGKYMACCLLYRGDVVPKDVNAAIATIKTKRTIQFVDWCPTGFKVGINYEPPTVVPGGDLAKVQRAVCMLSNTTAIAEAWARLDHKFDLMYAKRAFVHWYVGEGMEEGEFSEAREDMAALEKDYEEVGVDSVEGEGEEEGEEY
tubulins (tubulin dimers; paclitaxel-stabilized microtubules), sequence (P02554 whole entry, chain 2 of 2, further chain): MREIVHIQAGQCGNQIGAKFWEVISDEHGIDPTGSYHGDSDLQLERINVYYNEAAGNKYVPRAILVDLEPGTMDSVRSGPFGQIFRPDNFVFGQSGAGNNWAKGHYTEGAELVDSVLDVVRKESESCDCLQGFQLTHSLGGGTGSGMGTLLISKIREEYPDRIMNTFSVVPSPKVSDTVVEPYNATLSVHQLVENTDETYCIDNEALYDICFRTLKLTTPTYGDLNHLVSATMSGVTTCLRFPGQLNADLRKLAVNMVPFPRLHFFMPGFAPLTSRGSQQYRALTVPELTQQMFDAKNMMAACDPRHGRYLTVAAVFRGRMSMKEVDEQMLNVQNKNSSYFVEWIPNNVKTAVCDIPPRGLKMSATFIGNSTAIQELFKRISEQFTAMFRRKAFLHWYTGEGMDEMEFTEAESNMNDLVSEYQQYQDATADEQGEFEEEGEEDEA

Substance “His-AUG8 (AUGMIN subunit 8) (natural protein)” displayed a stoichiometry N (M His-AUG8 per mole of tubulin dimers) of 0.22.
